This passage reports Ki and IC50 results from article PMC10029098.

Test [1] deals with PD1 (Homo sapiens), Q15116. Description: competitive binding kinetics. Conditions: modification not given.
The target in test [2] is PD1 (Homo sapiens), Q15116. Nature of the test: ELISA PD1/PDL1 blocking. Conditions: modification not given. (An ELISA detects its analyte on a solid surface through an enzyme-linked reagent.)

Chain of PD1 (Homo sapiens), Q15116 (Q15116 25-170): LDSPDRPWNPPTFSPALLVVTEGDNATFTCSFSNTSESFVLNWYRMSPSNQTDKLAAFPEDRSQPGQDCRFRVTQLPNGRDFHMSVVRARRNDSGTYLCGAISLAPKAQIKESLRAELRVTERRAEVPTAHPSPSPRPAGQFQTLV

As to RWVARRDYRFDMGFDYWVWE [hairpin 1e], the inhibition constant (Ki) – broadly, a dissociation constant, usually derived from enzyme kinetics or from competition with a known ligand – in test [1] turned out to be 41 nM. Besides, the IC50 – broadly, the concentration needed to halve the response being measured – in test [2] came to 290 nM.

RWCARRDYRFDMGFDYWGWE [peptide 1c] came in with an IC50 in test [2] of 3700 nM.
